Laboratory results reported in publication PMC8772750.
Where two headings read alike, the source gives them in different places.

Columns and labels:
[1] = molecular target: Variegin (Amblyomma variegatum) (UniProt P85800); conditions: cited from earlier work
[2] = molecular target: Variegin (Amblyomma variegatum) (UniProt P85800); conditions: cited from earlier work; remark: listed apart in the source
human α-thrombin (human) [3] = molecular target: human α-thrombin (human) (UniProt P00734); assay: enzyme inhibition kinetics (thrombin amidolytic assay with S-2238); tight-binding assay: inhibitor incubated with 500 pM thrombin for 30 min at 37 °C, then S-2238 added to 50-500 µM; 50 mM Tris-HCl pH 8.4, 150 mM NaCl, 0.1% PEG 6000; Morrison equation for tight-binding competitive inhibitors, apparent Ki' plotted against substrate concentration to obtain Ki
human α-thrombin (human) [4] = molecular target: human α-thrombin (human) (UniProt P00734)

| Substance | Ki [1] | Ki [2] | Ki (human α-thrombin (human) [3]) | IC50 of inhibition of thrombin amidolytic activity (500 pM thrombin, 100 µM S-2238), preincubation 0 min (human α-thrombin (human) [4]) | IC50 of inhibition of thrombin amidolytic activity (500 pM thrombin, 100 µM S-2238), preincubation 30 min (human α-thrombin (human) [4]) |
| --- | --- | --- | --- | --- | --- |
| Thrombin (from UniProt P00734) | 0.0104 nM | 14 nM |  |  |  |
| recombinant anophelin from Anopheles albimanus (natural protein) |  |  | 0.0994 nM | 6.35 nM | 6.78 nM |
| recombinant haemadin from the leech Haemadipsa sylvestris (natural protein) |  |  | 0.000237 nM | 22 pM | 33.1 pM |
| recombinant hirudin-1 from Hirudo medicinalis (desirudin) (from UniProt P01050 1-65) (natural protein) |  |  | 0.000217 nM | 21.5 pM | 28 pM |
| recombinant variegin from the tick Amblyomma variegatum (from UniProt P85800 1-32) (peptide) |  |  | 0.372 nM | 14.6 nM | 18.4 nM |
